# Source: PMC12371180, “Redox regulation of LSD1/CATALASE 2 phase separation condensates controls location and functions” (The New Phytologist, 2025)
# T1: PEX5-CAT2 complex (Atto-488-labelled CAT2 saturated with PEX5) (Arabidopsis thaliana, UniProt P25819 1-492; Q9FMA3 1-728, labelled with Atto-488 (protein to dye 1:1))
# T1 construct: catalase 2 (CAT2), Arabidopsis thaliana, full-length recombinant protein; as the chain of m2; PEX5, peroxisomal PTS1 import receptor, Arabidopsis thaliana, full-length recombinant protein; as the chain of m3
# T1 sequence (looked up) 1: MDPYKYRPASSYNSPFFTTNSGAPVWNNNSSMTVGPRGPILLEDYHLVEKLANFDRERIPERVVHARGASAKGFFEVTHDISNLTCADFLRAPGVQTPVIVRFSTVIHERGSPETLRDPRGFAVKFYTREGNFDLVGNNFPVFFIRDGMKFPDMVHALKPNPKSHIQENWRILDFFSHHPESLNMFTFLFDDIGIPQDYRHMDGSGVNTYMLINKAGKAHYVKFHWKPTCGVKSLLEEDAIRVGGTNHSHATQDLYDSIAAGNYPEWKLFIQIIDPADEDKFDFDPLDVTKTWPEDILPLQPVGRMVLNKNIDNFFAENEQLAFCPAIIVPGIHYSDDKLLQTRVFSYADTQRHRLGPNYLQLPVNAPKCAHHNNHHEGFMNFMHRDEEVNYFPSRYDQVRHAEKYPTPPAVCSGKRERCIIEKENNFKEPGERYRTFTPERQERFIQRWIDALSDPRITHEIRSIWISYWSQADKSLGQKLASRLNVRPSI
# T1 sequence (looked up) 2: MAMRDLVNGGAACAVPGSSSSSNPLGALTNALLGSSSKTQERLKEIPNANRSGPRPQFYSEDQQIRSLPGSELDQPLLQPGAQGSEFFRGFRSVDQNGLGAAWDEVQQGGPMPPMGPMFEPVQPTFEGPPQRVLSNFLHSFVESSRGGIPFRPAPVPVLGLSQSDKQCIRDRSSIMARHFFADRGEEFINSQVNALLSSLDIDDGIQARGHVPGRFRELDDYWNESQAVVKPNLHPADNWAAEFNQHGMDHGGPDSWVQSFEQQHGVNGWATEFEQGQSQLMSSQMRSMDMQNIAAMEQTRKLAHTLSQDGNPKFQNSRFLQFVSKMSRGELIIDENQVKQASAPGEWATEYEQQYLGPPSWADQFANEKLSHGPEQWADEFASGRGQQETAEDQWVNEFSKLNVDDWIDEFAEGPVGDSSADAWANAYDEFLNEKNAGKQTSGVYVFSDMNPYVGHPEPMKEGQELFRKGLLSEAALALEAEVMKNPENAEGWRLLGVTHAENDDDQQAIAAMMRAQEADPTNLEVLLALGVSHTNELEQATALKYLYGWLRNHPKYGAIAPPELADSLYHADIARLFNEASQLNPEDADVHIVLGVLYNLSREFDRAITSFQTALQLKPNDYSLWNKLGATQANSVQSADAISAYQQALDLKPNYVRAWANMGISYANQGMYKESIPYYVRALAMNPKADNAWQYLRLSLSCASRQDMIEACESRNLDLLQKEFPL
# T2: peroxisome import receptor PEX5, recombinant Arabidopsis thaliana, full-length (Arabidopsis thaliana, UniProt Q9FMA3 1-728, unlabelled in MST; labelled with Atto-647 in the condensate imaging)
# T2 construct: PEX5, peroxisomal PTS1 import receptor, Arabidopsis thaliana, full-length recombinant protein; cloning not described; The cloning of the PEX5 construct is not described in the methods
# T2 sequence (looked up): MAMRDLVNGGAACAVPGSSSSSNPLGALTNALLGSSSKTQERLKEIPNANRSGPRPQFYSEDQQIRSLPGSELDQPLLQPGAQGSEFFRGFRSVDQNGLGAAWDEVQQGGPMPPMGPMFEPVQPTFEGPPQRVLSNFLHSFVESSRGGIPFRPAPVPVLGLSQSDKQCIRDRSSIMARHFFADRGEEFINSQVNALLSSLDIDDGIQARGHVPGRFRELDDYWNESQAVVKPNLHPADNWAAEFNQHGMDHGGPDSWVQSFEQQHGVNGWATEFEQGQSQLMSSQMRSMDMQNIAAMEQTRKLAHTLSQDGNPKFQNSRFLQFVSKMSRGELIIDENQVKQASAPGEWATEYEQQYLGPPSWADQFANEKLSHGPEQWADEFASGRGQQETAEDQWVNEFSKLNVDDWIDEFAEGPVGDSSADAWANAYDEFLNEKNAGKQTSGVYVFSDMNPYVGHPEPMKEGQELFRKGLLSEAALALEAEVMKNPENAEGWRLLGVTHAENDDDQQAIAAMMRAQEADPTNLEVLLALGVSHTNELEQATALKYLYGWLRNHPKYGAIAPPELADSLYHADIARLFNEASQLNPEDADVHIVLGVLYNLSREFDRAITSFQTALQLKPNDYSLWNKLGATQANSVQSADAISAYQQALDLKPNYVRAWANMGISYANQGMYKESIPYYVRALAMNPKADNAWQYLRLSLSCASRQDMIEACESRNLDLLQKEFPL
# B1: LESION SIMULATING DISEASE1 (LSD1), recombinant Arabidopsis thaliana, full-length (natural protein, UniProt P94077-2 1-184, looked up)
# chain: MQDQLVCHGCRNLLMYPRGASNVRCALCNTINMVPPPPPPHDMAHIICGGCRTMLMYTRGASSVRCSCCQTTNLVPAHSNQVAHAPSSQVAQINCGHCRTTLMYPYGASSVKCAVCQFVTNVNMSNGRVPLPTNRPNGTACPPSTSTSTPPSQTQTVVVENPMSVDESGKLVSNVVVGVTTDKK
# modifications: unlabelled when titrated in MST; labelled with Atto-550 in the condensate imaging
# notes: LSD1 (LESION SIMULATING DISEASE1), Arabidopsis thaliana, full-length, cloned into pET28b with NdeI and NotI; pET28b with NdeI cloning would usually add an N-terminal His tag (surmise; source: dialysed)
# B2: catalase 2 (CAT2), recombinant Arabidopsis thaliana, full-length (enzyme, UniProt P25819 1-492, looked up)
# chain: MDPYKYRPASSYNSPFFTTNSGAPVWNNNSSMTVGPRGPILLEDYHLVEKLANFDRERIPERVVHARGASAKGFFEVTHDISNLTCADFLRAPGVQTPVIVRFSTVIHERGSPETLRDPRGFAVKFYTREGNFDLVGNNFPVFFIRDGMKFPDMVHALKPNPKSHIQENWRILDFFSHHPESLNMFTFLFDDIGIPQDYRHMDGSGVNTYMLINKAGKAHYVKFHWKPTCGVKSLLEEDAIRVGGTNHSHATQDLYDSIAAGNYPEWKLFIQIIDPADEDKFDFDPLDVTKTWPEDILPLQPVGRMVLNKNIDNFFAENEQLAFCPAIIVPGIHYSDDKLLQTRVFSYADTQRHRLGPNYLQLPVNAPKCAHHNNHHEGFMNFMHRDEEVNYFPSRYDQVRHAEKYPTPPAVCSGKRERCIIEKENNFKEPGERYRTFTPERQERFIQRWIDALSDPRITHEIRSIWISYWSQADKSLGQKLASRLNVRPSI
# modifications: labelled with Atto-488 (protein to dye 1:1) in MST and in the condensate imaging
# notes: catalase 2 (CAT2), Arabidopsis thaliana, full-length recombinant protein; cloned into pET28b with NdeI and XhoI; pET28b with NdeI cloning would usually add an N-terminal His tag (surmise)
# Key:
# [1] = target: catalase 2 (CAT2), recombinant Arabidopsis thaliana, full-length (Arabidopsis thaliana) (UniProt P25819)
# [2] = target: T1, PEX5-CAT2 complex (Atto-488-labelled …); assay: MST; Atto-488-labelled CAT2 saturated with PEX5 (10-fold above the affinity value) before titration of LSD1; 25°C, 20 mM HEPES pH 7.5, 20 mM NaCl, 0.05% Tween 20; details: both partners purified
# [3] = target: T2, peroxisome import receptor PEX5, …; assay: MST; 100 nM Atto-488-labelled CAT2, unlabelled partner serially diluted; 25°C, 20 mM HEPES pH 7.5, 20 mM NaCl, 0.05% Tween 20; Monolith NT.115; details: both partners purified
Binder,"catalase activity (change of 240 nm absorbance in 30 mM H2O2) of 10 μM CAT2 mixed with 10 μM LSD1 to form LSD1-CAT2 condensates, against CAT2 alone [1] [fold]",Kd [2] [nM],Kd [3] [nM]
B1,2.5,136 ± 39.8,–
B2,–,–,2350 ± 279
